Reference: article PMC8385992

Assays:
Experiment in all cases: SEC
[1] = biological target: SARS-CoV-2 Nsp15 N278A (SARS-CoV-2)
[2] = biological target: SARS-CoV-2 Nsp15 S294A (SARS-CoV-2)
[3] = biological target: SARS-CoV-2 Nsp15 W333A (SARS-CoV-2)
[4] = biological target: SARS-CoV-2 Nsp15 Y343A (SARS-CoV-2)

SARS-CoV-2 Nsp15 N278A (enzyme)
stoichiometry N [1]: 6

SARS-CoV-2 Nsp15 S294A (enzyme)
stoichiometry N [2]: 6

SARS-CoV-2 Nsp15 W333A (enzyme)
stoichiometry N [3]: 6

SARS-CoV-2 Nsp15 Y343A (enzyme)
stoichiometry N [4]: 6
